Article PMC8790125, “Molecular Mechanism of SARS-CoVs Orf6 Targeting the Rae1–Nup98 Complex to Compete With mRNA Nuclear Export”

Target: Rae1;Nup98 GLEBS (human;human, UniProt P78406;P52948-3 1-368;157-213, |)
Assay: ITC
Details: protein: recombinant;recombinant; tags: His tag on the complex (HisTrap); copies: 1;1

Sequence of Rae1;Nup98 GLEBS (P78406 whole entry, chain 1 of 2): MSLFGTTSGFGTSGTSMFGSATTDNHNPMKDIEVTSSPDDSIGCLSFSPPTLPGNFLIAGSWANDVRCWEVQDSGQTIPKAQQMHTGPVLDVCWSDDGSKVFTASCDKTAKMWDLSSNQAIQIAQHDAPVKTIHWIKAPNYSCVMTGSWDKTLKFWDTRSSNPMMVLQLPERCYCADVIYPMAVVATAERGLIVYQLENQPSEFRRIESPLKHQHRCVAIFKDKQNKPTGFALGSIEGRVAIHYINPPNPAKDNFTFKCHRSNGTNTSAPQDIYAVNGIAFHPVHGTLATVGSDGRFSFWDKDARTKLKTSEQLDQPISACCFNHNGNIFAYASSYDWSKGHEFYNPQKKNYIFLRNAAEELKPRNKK
Sequence of Rae1;Nup98 GLEBS (P52948 157-213, chain 2 of 2): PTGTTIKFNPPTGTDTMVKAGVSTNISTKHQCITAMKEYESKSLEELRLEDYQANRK

UUUUUUUUUUUUUU (ssRNA) [14-mer poly(U) ssRNA]: binds.
